The results in this text go back to the supplement of paper PMC5998384.

Data set [1] deals with HeLa Kyoto. The data set is described as follows: melting temperature (median over replicates), in situ; higher = more thermally stable.
Data set [2] concerns HeLa Kyoto. Kind of data set: solubility in G1/S (NP-40 vs SDS abundance) (log2 ratio); higher = more soluble. To be noted: cell cycle stage: G1/S.
In data set [3] the test system is HeLa Kyoto. The data set is described as follows: thermal stability score vs G1/S (z-score of summed log2 fold changes over temperatures); higher = more thermally stable than in G1/S.
The test system of data set [4] is HeLa Kyoto. The data set is described as follows: solubility change mitosis vs G1/S (difference of NP-40 vs SDS log2 ratios) (log2 ratio difference); higher = more soluble in mitosis.
[5] abbreviates: cell cycle stage: early G1 (4.5 h after nocodazole release).
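For melting temperature (median over replicates), in situ in this document: HeLa Kyoto cells synchronized by double thymidine or nocodazole block, proteins quantified by TMT10plex mass spectrometry, three independent biological replicates.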
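For solubility change mitosis vs G1/S (difference of NP-40 vs SDS log2 ratios) in this document: synchronized HeLa Kyoto cells (double thymidine block for G1/S, nocodazole release for mitosis), protein amounts in NP-40 versus SDS lysates quantified by mass spectrometry, three biological replicates.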
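For solubility in G1/S (NP-40 vs SDS abundance) in this document: HeLa Kyoto cells arrested at G1/S by double thymidine block, proteins quantified by TMT10plex mass spectrometry in mild NP-40 versus SDS extracts, three biological replicates.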
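For thermal stability score vs G1/S (z-score of summed log2 fold changes over temperatures) in this document: synchronized HeLa Kyoto cells, proteins quantified by TMT10plex mass spectrometry, three biological replicates, mitosis taken 0.5 h after nocodazole release, G1/S directly after double thymidine block.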

As to “MGAFLDKPKMEKHNAQGQGNGLRYGLSSMQGWRVEMEDAHTAVIGLPSGLESWSFFAVYDGHAGSQVAKYCCEHLLDHITNNQDFKGSAGAPSVENVKNGIRTGFLEIDEHMRVMSEKKHGADRSGSTAVGVLISPQHTYFINCGDSRGLLCRNRKVHFFTQDHKPSNPLEKERIQNAGGSVMIQRVNGSLAVSRALGDFDYKCVHGKGPTEQLVSPEPEVHDIERSEEDDQFIILACDGIWDVMGNEELCDFVRSRLEVTDDLEKVCNEVVDTCLYKGSRDNMSVILICFPNAPKVSPEAVKKEAELDKYLECRVEEIIKKQGEGVPDLVHVMRTLASENIPSLPPGGELASKRNVIEAVYNRLNPYKNDDTDSTSTDDMW [PPM1A]”, the melting temperature came to 51.9 °C in the data set on HeLa Kyoto [1] (cell cycle stage: G1/S) and 52 °C in the data set on HeLa Kyoto [1] (cell cycle stage: mitosis). The “solubility in G1/S (log2)” value in the data set with HeLa Kyoto [2] is 0.243. Moreover, the thermal stability score in the data set with HeLa Kyoto [3] (setting [5]) is 0.1; in the data set on HeLa Kyoto [3] (cell cycle stage: mitosis), -0.132. For the same substance, the “solubility change mitosis (log2)” value in the data set on HeLa Kyoto [4] was -0.159.
As to “MALQLGRLSSGPCWLVARGGCGGPRAWSQCGGGGLRAWSQRSAAGRVCRPPGPAGTEQSRGLGHGSTSRGGPWVGTGLAAALAGLVGLATAAFGHVQRAEMLPKTSGTRATSLGRPEEEEDELAHRCSSFMAPPVTDLGELRRRPGDMKTKMELLILETQAQVCQALAQVDGGANFSVDRWERKEGGGGISCVLQDGCVFEKAGVSISVVHGNLSEEAAKQMRSRGKVLKTKDGKLPFCAMGVSSVIHPKNPHAPTIHFNYRYFEVEEADGNKQWWFGGGCDLTPTYLNQEDAVHFHRTLKEACDQHGPDLYPKFKKWCDDYFFIAHRGERRGIGGIFFDDLDSPSKEEVFRFVQSCARAVVPSYIPLVKKHCDDSFTPQEKLWQQLRRGRYVEFNLLYDRGTKFGLFTPGSRIESILMSLPLTARWEYMHSPSENSKEAEILEVLRHPRDWVR [CPOX]”, the melting temperature in the data set with HeLa Kyoto [1] (cell cycle stage: G1/S) and in the data set with HeLa Kyoto [1] (cell cycle stage: mitosis) was 55 °C in each case. Further, the “solubility in G1/S (log2)” value with HeLa Kyoto [2] amounted to 0.131. Besides, the thermal stability score in the data set on HeLa Kyoto [3] (setting [5]) was -0.749; in the data set on HeLa Kyoto [3] (cell cycle stage: mitosis), -1.47. Besides, in the data set with HeLa Kyoto [4], the “solubility change mitosis (log2)” value was -0.135.
Consider “MVEPGQDLLLAALSESGISPNDLFDIDGGDAGLATPMPTPSVQQSVPLSALELGLETEAAVPVKQEPETVPTPALLNVRQQPPSTTTFVLNQINHLPPLGSTIVMTKTPPVTTNRQTITLTKFIQTTASTRPSVSAPTVRNAMTSAPSKDQVQLKDLLKNNSLNELMKLKPPANIAQPVATAATDVSNGTVKKESSNKEGARMWINDMKMRSFSPTMKVPVVKEDDEPEEEDEEEMGHAETYAEYMPIKLKIGLRHPDAVVETSSLSSVTPPDVWYKTSISEETIDNGWLSALQLEAITYAAQQHETFLPNGDRAGFLIGDGAGVGKGRTIAGIIYENYLLSRKRALWFSVSNDLKYDAERDLRDIGAKNILVHSLNKFKYGKISSKHNGSVKKGVIFATYSSLIGESQSGGKYKTRLKQLLHWCGDDFDGVIVFDECHKAKNLCPVGSSKPTKTGLAVLELQNKLPKARVVYASATGASEPRNMAYMNRLGIWGEGTPFREFSDFIQAVERRGVGAMEIVAMDMKLRGMYIARQLSFTGVTFKIEEVLLSQSYVKMYNKAVKLWVIARERFQQAADLIDAEQRMKKSMWGQFWSAHQRFFKYLCIASKVKRVVQLAREEIKNGKCVVIGLQSTGEARTLEALEEGGGELNDFVSTAKGVLQSLIEKHFPAPDRKKLYSLLGIDLTAPSNNSSPRDSPCKENKIKKRKGEEITREAKKARKVGGLTGSSSDDSGSESDASDNEESDYESSKNMSSGDDDDFNPFLDESNEDDENDPWLIRKDHKKNKEKKKKKSIDPDSIQSALLASGLGSKRPSFSSTPVISPAPNSTPANSNTNSNSSLITSQDAVERAQQMKKDLLDKLEKLAEDLPPNTLDELIDELGGPENVAEMTGRKGRVVSNDDGSISYESRSELDVPVEILNITEKQRFMDGDKNIAIISEAASSGISLQADRRAKNQRRRVHMTLELPWSADRAIQQFGRTHRSNQVTAPEYVFLISELAGEQRFASIVAKRLESLGALTHGDRRATESRDLSRFNFDNKYGRNALEIVMKSIVNLDSPMVSPPPDYPGEFFKDVRQGLIGVGLINVEDRSGILTLDKDYNNIGKFLNRILGMEVHQQNALFQYFADTLTAVVQNAKKNGRYDMGILDLGSGDEKVRKSDVKKFLTPGYSTSGHVELYTISVERGMSWEEATKIWAELTGPDDGFYLSLQIRNNKKTAILVKEVNPKKKLFLVYRPNTGKQLKLEIYADLKKKYKKVVSDDALMHWLDQYNSSADTCTHAYWRGNCKKASLGLVCEIGLRCRTYYVLCGSVLSVWTKVEGVLASVSGTNVKMQIVRLRTEDGQRIVGLIIPANCVSPLVNLLSTSDQSQQLAVQQKQLWQQHHPQSITNLSNA [SBNO1]”, for which the results for the melting temperature in the data set on HeLa Kyoto [1] (cell cycle stage: G1/S) and in the data set with HeLa Kyoto [1] (cell cycle stage: mitosis) were 50.9 °C and 51.4 °C, respectively. The “solubility in G1/S (log2)” value with HeLa Kyoto [2] is 0.0971. Moreover, the thermal stability score came out at 1.19 in the data set with HeLa Kyoto [3] (setting [5]) and 2.1 in the data set on HeLa Kyoto [3] (cell cycle stage: mitosis). The “solubility change mitosis (log2)” value in the data set on HeLa Kyoto [4] was -0.158.
“MSLICSISNEVPEHPCVSPVSNHVYERRLIEKYIAENGTDPINNQPLSEEQLIDIKVAHPIRPKPPSATSIPAILKALQDEWDAVMLHSFTLRQQLQTTRQELSHALYQHDAACRVIARLTKEVTAAREALATLKPQAGLIVPQAVPSSQPSVVGAGEPMDLGELVGMTPEIIQKLQDKATVLTTERKKRGKTVPEELVKPEELSKYRQVASHVGLHSASIPGILALDLCPSDTNKILTGGADKNVVVFDKSSEQILATLKGHTKKVTSVVFHPSQDLVFSASPDATIRIWSVPNASCVQVVRAHESAVTGLSLHATGDYLLSSSDDQYWAFSDIQTGRVLTKVTDETSGCSLTCAQFHPDGLIFGTGTMDSQIKIWDLKERTNVANFPGHSGPITSIAFSENGYYLATAADDSSVKLWDLRKLKNFKTLQLDNNFEVKSLIFDQSGTYLALGGTDVQIYICKQWTEILHFTEHSGLTTGVAFGHHAKFIASTGMDRSLKFYSL [PRPF19]”: the melting temperature with HeLa Kyoto [1] (cell cycle stage: G1/S) worked out at 56.5 °C; in the data set on HeLa Kyoto [1] (cell cycle stage: mitosis), 54 °C. Further, the “solubility in G1/S (log2)” value in the data set with HeLa Kyoto [2] is -0.473. Besides, the thermal stability score was -0.506 in the data set with HeLa Kyoto [3] (setting [5]) and -3.39 in the data set with HeLa Kyoto [3] (cell cycle stage: mitosis). Moreover, the “solubility change mitosis (log2)” value in the data set with HeLa Kyoto [4] was found to be 0.214.
As to “MSGNGNAAATAEENSPKMRVIRVGTRKSQLARIQTDSVVATLKASYPGLQFEIIAMSTTGDKILDTALSKIGEKSLFTKELEHALEKNEVDLVVHSLKDLPTVLPPGFTIGAICKRENPHDAVVFHPKFVGKTLETLPEKSVVGTSSLRRAAQLQRKFPHLEFRSIRGNLNTRLRKLDEQQEFSAIILATAGLQRMGWHNRVGQILHPEECMYAVGQGALGVEVRAKDQDILDLVGVLHDPETLLRCIAERAFLRHLEGGCSVPVAVHTAMKDGQLYLTGGVWSLDGSDSIQETMQATIHVPAQHEDGPEDDPQLVGITARNIPRGPQLAAQNLGISLANLLLSKGAKNILDVARQLNDAH [HMBS]”, the melting temperature in the data set with HeLa Kyoto [1] (cell cycle stage: G1/S) came to 57.6 °C; in the data set with HeLa Kyoto [1] (cell cycle stage: mitosis) it was 57.3 °C. In the data set on HeLa Kyoto [2], the “solubility in G1/S (log2)” value worked out at 0.328. Besides, the results for the thermal stability score in the data set with HeLa Kyoto [3] (setting [5]) and in the data set with HeLa Kyoto [3] (cell cycle stage: mitosis) were -1.68 and -1.79, respectively. In addition, in the data set with HeLa Kyoto [4], the “solubility change mitosis (log2)” value was -0.0671.
As to LAMA5, the melting temperature with HeLa Kyoto [1] (cell cycle stage: G1/S) came to 53.3 °C; with HeLa Kyoto [1] (cell cycle stage: mitosis) it was 54.1 °C. In the data set on HeLa Kyoto [2], the “solubility in G1/S (log2)” value is -0.331. Moreover, the thermal stability score in the data set on HeLa Kyoto [3] (setting [5]) worked out at 1.64; in the data set on HeLa Kyoto [3] (cell cycle stage: mitosis) it was 3.23. Further, in the data set on HeLa Kyoto [4], the “solubility change mitosis (log2)” value turned out to be 0.0689.
